Among the data in the RNAGym collection of RNA variant scans (doi:10.7554/elife.90254) are self-cleavage values, retold here.

The labels stand for the following.
B1: OR4K15 (parent)
chain: GUUAACGGUCAUAGGCCAUGGAAACUAGGAGCACCAUUUCGCUGCCAGUGAAGAAAUGAACAAAGAAAAUCUGGGCCAGGCAGGCAUCAAAAGAAAUAGUCUUGCGCUCAACCAGAAAGUCUGUAAUCAUUUUAAGGGUA

The variants in the series derive from B1. Briefly: self-cleavage, relative activity (ratio to wild type); higher = more cleavage; in vitro, sequencing; the parent is a self-cleaving ribozyme.
As for GUUAACGGUUAUAGGCCAUGGAAACUAGGAGCACCAUUUCGCUGCCAGUGAAGAAAUGAACAAAGAAAAUCUGGGCCAGGCAGGCAUCAAAAGAAAUAGUCUUGCGCUCAACCAGAAAGUCUGAAAUCAUUUUAAGGGUA, the self-cleavage was found to be 0.36.

Turning to GUUAACGGUUAUAGGCCAUGGAAACUAGGAGCACCAUUCCGCUGCCAGUGAAGAAAUGAACAAAGAAAAUCUGGGCCAGGCAGGCAUCAAAAGAAAUAGUCUUGCGCUCAACCAGAAAGUCUGUAAUCAUUUUAAGGGUA, the self-cleavage was determined as 1.02.

As to GUUAACGGUUAUAGGCCAUGGAAACUAGGAGCACCAUUUCGCUGCCAGUGAAGAAAUGAACAAGGAAAAUCUGGGCCAGGCAGGCAUCAAAAGAAAUAGUCUUGCGCUCAACCAGAAAGUCUGUAAUCAUUUUAAGGGUA, the self-cleavage stood at 1.25.

Turning to GUUAACGGUUAUAGGCCAUGGAAACUAGGAGCACCAUUUCGCUGCCAGUGAAGAAAUGAACAAAGAAAAUCUGGGCCAGGCAGGCAUCAAAAGACAUAGUCUUGCGCUCAACCAGAAAGUCUGUAAUCAUUUUAAGGGUA, the self-cleavage was found to be 0.6.

Take GUUAACGGUCCUAGGCCAUGGAAACUAGGAGCACCAUUUCGCUGCCAGUGAAGAAAUGAACAAAGAAAAUCAGGGCCAGGCAGGCAUCAAAAGAAAUAGUCUUGCGCUCAACCAGAAAGUCUGUAAUCAUUUUAAGGGUA: the self-cleavage stood at 0.17.

With GUUAACGGUCCUAGGCCAUGGAAACUAGGAGCACCAUUUCGCUGCCAGUGAAGAAAUGAACAAAGAAAAUCCGGGCCAGGCAGGCAUCAAAAGAAAUAGUCUUGCGCUCAACCAGAAAGUCUGUAAUCAUUUUAAGGGUA, the self-cleavage was 0.13.

Consider GUUAACGGUCCUAGGCCAUGGAAACUAGGAGCACCAUUUCGCUGCCAGUGAAGAAAUGAACAAAGAAAAUCUGGGCCCGGCAGGCAUCAAAAGAAAUAGUCUUGCGCUCAACCAGAAAGUCUGUAAUCAUUUUAAGGGUA, for which the self-cleavage was 0.16.

GUUAACGGUUAUAGGCCAUGGAAACUAGGAGCACCAUUUCGCUGCCAGUGAAGAAAUGAACAUAGAAAAUCUGGGCCAGGCAGGCAUCAAAAGAAAUAGUCUUGCGCUCAACCAGAAAGUCUGUAAUCAUUUUAAGGGUA: the self-cleavage came to 0.69.

As to GUUAACGGUUAUAGGCCAUGGAAACUAGGAGCACCAUUUCGCUGCCAGUGAAGAAAUGAACAAAGAAAAUCUGGGCCAGGCAGGCAUCAAAAGAAAUAGUCUUGCGCUCAACCAGAAAGUCUGUAACCAUUUUAAGGGUA, the self-cleavage came to 0.32.

GUUAACGGUCCUAGGCCAUGGAAACUAGGAGCACCAUUUCGCUGCCAGUGAAGAAAUGAACAAAGAAAAUCUGGGCCAGGCAGGCAUCAAAAGAAAUAGUCUUGCGCUCAACCAGAAAGUCUGUGAUCAUUUUAAGGGUA: the self-cleavage was determined as 0.5.

Regarding GUUAACGGUUAUAGGCCAUGGAAACUAGGAGCACCAUUUCGCUGCCAGUGAAGAAAUGAACAAAGAAAAUCUGGGCCAGGCAGGCAUCAAAAGAAAUAGUCUUGCGCUCAACCAGAAAGUCUGUAAUCAUUCUAAGGGUA, the self-cleavage was 1.26.

On to GUUAACGGUUAUAGGCCAUGGAAACUAGGAGCACCAUUUCGCUGCCAGUGAAGAAAUGAACAAAGAAAAUCUGGGCCAGGCAGGCAUCAAAAGAAAUAGUCUCGCGCUCAACCAGAAAGUCUGUAAUCAUUUUAAGGGUA, for which the self-cleavage turned out to be 1.16.

GUUAACGGUUAUAGGCCAUGGAAACUAGGAGCACCAUUUCGCUGCCAGUGAAGAAGUGAACAAAGAAAAUCUGGGCCAGGCAGGCAUCAAAAGAAAUAGUCUUGCGCUCAACCAGAAAGUCUGUAAUCAUUUUAAGGGUA: the self-cleavage was 0.84.

For the variant GUUAACGGUCCUAGGCCAUGGAAACUAGGAGCACCAUUUCGCUGCCAGUGAAGAAAUGAACAAAGAAAAUCUGGGCCAGGCAGGCAUCAAAAGAAAUAGUCUUGCGCUCAACCAGAAUGUCUGUAAUCAUUUUAAGGGUA, the self-cleavage was 0.72.

GUUAACGGUCCUAGGCCAUGGAAACUAGGAGCACCAUUUCGCUGCCAGUGAAGAAAUGAACAAAGAAAAUCUGGGCCAGGCAGGCAUCAAAAGAAAUAGUCUUGCGCUCAACCAGAAGGUCUGUAAUCAUUUUAAGGGUA: the self-cleavage came to 2.4.

As to GUUAACGGUCCUAGGCCAUGGAAACUAGGAGCACCAUUUCGCUGCCAGUGAAGAAAUGAACAAAGAAAAUCUGGGCCAGGCAGGCAUCAAAAGAAAUAGUCUUGCGCUCAACCAGAAAGUCCGUAAUCAUUUUAAGGGUA, the self-cleavage came to 1.46.

For the variant GUUAACGGUAAUAGGCCAUGGAAACUAGGAGCACCAUUUCGCUGCCAGUGAAGAAAUGAACAAAGAAAAUCUGGGCCAGGCAGGCAUCAGAAGAAAUAGUCUUGCGCUCAACCAGAAAGUCUGUAAUCAUUUUAAGGGUA, the self-cleavage amounted to 1.02.

In the case of GUUAACGGUAAUAGGCCAUGGAAACUAGGAGCACCAUUUCGCUGCCAGUGAAGAAAUGAACAAAGAAAAUCUGGGCCAGGCAGGCAUCAAAAGAAAUAGUCUUGCGCUCAACCAGAAGGUCUGUAAUCAUUUUAAGGGUA, the self-cleavage came to 1.99.

Regarding GUUAACGGUUAUAGGCCAUGGAAACUAGGAGCACCAUUUCGCUGCCGGUGAAGAAAUGAACAAAGAAAAUCUGGGCCAGGCAGGCAUCAAAAGAAAUAGUCUUGCGCUCAACCAGAAAGUCUGUAAUCAUUUUAAGGGUA, the self-cleavage was determined as 0.

For GUUAACGGUAAUAGGCCAUGGAAACUAGGAGCACCAUUUCGCUGCCAGUGAAGAAAUGAACAAAGAAAAUCUGGGCCAGGCAGGCAUCAAAAGAAGUAGUCUUGCGCUCAACCAGAAAGUCUGUAAUCAUUUUAAGGGUA, the self-cleavage was 1.33.

Regarding GUUAACGGUCCUAGGCCAUGGGAACUAGGAGCACCAUUUCGCUGCCAGUGAAGAAAUGAACAAAGAAAAUCUGGGCCAGGCAGGCAUCAAAAGAAAUAGUCUUGCGCUCAACCAGAAAGUCUGUAAUCAUUUUAAGGGUA, the self-cleavage is 0.94.

As to GUUAACGGUUAUAGGCCAUGGAAACUAGGAGCACCAUUUCGCUGCCAGUGAAGAGAUGAACAAAGAAAAUCUGGGCCAGGCAGGCAUCAAAAGAAAUAGUCUUGCGCUCAACCAGAAAGUCUGUAAUCAUUUUAAGGGUA, the self-cleavage was 0.52.

Consider GUUAACGGUUAUAGGCCAUGGAAACUAGGAGCACCAUUUCGCUGCCAGUGAAGAAAUGAACAAAGAAAAUCUGGGCCAGGCAGGCAUCAAAAGAAAUAGUCUUGCGCUCAACCAGAGAGUCUGUAAUCAUUUUAAGGGUA, for which the self-cleavage turned out to be 2.34.

Regarding GUUAACGGUUAUAGGCCAUGGAAACUAGGAGCACCAUUUCGCUGCCAGUGAAGAAAUGAACAAAGAAAAUCUGGGCCAGGCAGGCAUCAAAAGAAAUAGUCUUGCGCCCAACCAGAAAGUCUGUAAUCAUUUUAAGGGUA, the self-cleavage was found to be 0.06.

Take GUUAACGGUUAUAGGCCAUGGAAACUAGGAGCACCAUUUCGCUGCCAGUGAAGAAAUGAACAAAGAAAAUCUGGGCCAGGCAGGCAUCAAGAGAAAUAGUCUUGCGCUCAACCAGAAAGUCUGUAAUCAUUUUAAGGGUA: the self-cleavage came out at 0.68.

For GUUAACGGUCCUAGGCCAUGGAAACUAGGAGCACCAUUUCGCUGCCAGUGAAGAAAUGAACAAAGAAAAUCUGGGCCAGGCAGGCAUCAAAAGAAAUAGUCUUGCGCUCAACCAGAAAGUCUGCAAUCAUUUUAAGGGUA, the self-cleavage turned out to be 1.12.

Consider GUUAACGGUUAUAGGCCAUGGAAACUAGGAGCACCAUUUCGCUGCCAGUGAAGAAAUGAACAAAGAAAAUCUGGGCCAGGCAGGCAUCAAAAGAAAUAGUCUUGCCCUCAACCAGAAAGUCUGUAAUCAUUUUAAGGGUA, for which the self-cleavage came to 0.03.

For the variant GUUAACGGUUAUAGGCCAUGGAAACUAGGAGCACCAUUUCGCUGCCAGUGAAGAAAUGAACAAAGAAAAUCUGGGCCAGGCAGGCAUCAAAAGAAAUAGUCUUGCGCUCGACCAGAAAGUCUGUAAUCAUUUUAAGGGUA, the self-cleavage was 0.19.

Take GUUAACGGUAAUAGGCCAUGGAAACUAGGAGCACCAUUUCGCUGCCAGUGAAGAAAUGAACAAAGAAAAUCUGGGCCAGGCAGGCGUCAAAAGAAAUAGUCUUGCGCUCAACCAGAAAGUCUGUAAUCAUUUUAAGGGUA: the self-cleavage was 0.31.

On to GUUAACGGUCCUAGGCCAUGGAAACUAGGAGCACCAUUUCGCUGCCAGUGAAGAAAUGAACAAAGAAAGUCUGGGCCAGGCAGGCAUCAAAAGAAAUAGUCUUGCGCUCAACCAGAAAGUCUGUAAUCAUUUUAAGGGUA, for which the self-cleavage was 1.7.

On to GUUAACGGUUAUAGGCCAUGGAAACUAGGAGCACCAUUUCGCUGCCAGUGAAGAAAUGAACAAAGAAAAUCUGGGCCAGGCAGGCAUCAAAAGAAAUAGUCUUGCGCUCAGCCAGAAAGUCUGUAAUCAUUUUAAGGGUA, for which the self-cleavage was 0.07.

Take GUUAACGGUCCUGGGCCAUGGAAACUAGGAGCACCAUUUCGCUGCCAGUGAAGAAAUGAACAAAGAAAAUCUGGGCCAGGCAGGCAUCAAAAGAAAUAGUCUUGCGCUCAACCAGAAAGUCUGUAAUCAUUUUAAGGGUA: the self-cleavage is 0.93.

Turning to GUUAACGGUUAUAGGCCAUGGAAACUAGGAGCACCAUUUCGCUGCCAGUGAAGAAAUGAACAAAGAAAAUCUGGGCCAGGCAGGCAUCAAAAGAAAUAGUCUUGCGCUCAACCAGAAAGUCUGUAAUCAUCUUAAGGGUA, the self-cleavage amounted to 0.47.

As to GUUAACGGUAAUAGGCCAUAGAAACUAGGAGCACCAUUUCGCUGCCAGUGAAGAAAUGAACAAAGAAAAUCUGGGCCAGGCAGGCAUCAAAAGAAAUAGUCUUGCGCUCAACCAGAAAGUCUGUAAUCAUUUUAAGGGUA, the self-cleavage stood at 0.86.

GUUAACGGUCCUAGGCCAUGGAAACUAGGAGCACCACUUCGCUGCCAGUGAAGAAAUGAACAAAGAAAAUCUGGGCCAGGCAGGCAUCAAAAGAAAUAGUCUUGCGCUCAACCAGAAAGUCUGUAAUCAUUUUAAGGGUA: the self-cleavage was determined as 0.79.

As for GUUAACGGUAAUAGGCCAUGGAAACUAGGAGCACCAUUUCGCUGCCAGUGAAGAAAUGAACAAAGAAGAUCUGGGCCAGGCAGGCAUCAAAAGAAAUAGUCUUGCGCUCAACCAGAAAGUCUGUAAUCAUUUUAAGGGUA, the self-cleavage stood at 0.85.

On to GUUAACGGUCCUAGGCCAUGGAAACUAGGAGCACCAUUUCGCUGCCAGCGAAGAAAUGAACAAAGAAAAUCUGGGCCAGGCAGGCAUCAAAAGAAAUAGUCUUGCGCUCAACCAGAAAGUCUGUAAUCAUUUUAAGGGUA, for which the self-cleavage amounted to 1.57.

For the variant GUUAACGGUUAUAGGCCAUGGAAACUAGGAGCACCAUUUCGCUGCCAGUGAAGAAAUGAACAAAGAAAAUCUGGGCCAGGCAGGCACCAAAAGAAAUAGUCUUGCGCUCAACCAGAAAGUCUGUAAUCAUUUUAAGGGUA, the self-cleavage stood at 1.08.

For GUUAACGGUAAUAGGCCAUGGAAACUAGGAGCACCAUAUCGCUGCCAGUGAAGAAAUGAACAAAGAAAAUCUGGGCCAGGCAGGCAUCAAAAGAAAUAGUCUUGCGCUCAACCAGAAAGUCUGUAAUCAUUUUAAGGGUA, the self-cleavage turned out to be 0.81.

Consider GUUAACGGUAAUAGGCCAUGGAAACUAGGAGCACCAUUUCGCUGCCAGUGAAGAAAUGAACAAAGAAAAUCUGGGCCAGGCAGGCAUCAAAAGAAAUAGUCUUGCGCUCAACCAGAAAGUCUGCAAUCAUUUUAAGGGUA, for which the self-cleavage turned out to be 0.79.

As for GUUAACGGUCCUAGGCCAUGGAAACUAGGAGCACCAUUUCGCUGCCAGUGAAGAAAUGAACAAAGAAAAUCUGGGCCAGGCAGGCAUCAAAAGAAAUAGUCUUGCGCUCAACCAGAAAGUCUGUAAUCAUUUUAAGGGUA, the self-cleavage was determined as 1.41.
